In the supplement of paper PMC10201428:
± gives the standard deviation of the averaged measurements.

Key:
[1] = system: VchCAST RNA-guided transposition machinery (E. coli BL21(DE3) host, lacZ target); assay: relative integration efficiency (T-RL orientation) vs wild-type transposon end (log2 (normalized fold change)); transposon end mutated: right end (5 bp flank + 75 bp right end); higher = more efficient transposition
Summary of the method: (§1)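 A T7-driven effector plasmid encoding a CRISPR array, tniQ-cas8-cas7-cas6 and tnsA-tnsB-tnsC was co-transformed into E. coli BL21(DE3) together with a pUC57 mini-transposon donor holding barcoded pools of 1549 left-end or 1849 right-end variants. Transformants were plated with 0.1 mM IPTG at 37°C for 18 h. Illumina sequencing of PCR-amplified input plasmids and genomic integration junctions gave barcode abundances, and relative integration efficiency is their output/input fold change, normalised to reference barcodes and log-transformed.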

[2] = system: VchCAST RNA-guided transposition machinery (E. coli BL21(DE3) host, lacZ target); assay: relative integration efficiency (T-LR orientation) vs wild-type transposon end (log2 (normalized fold change)); transposon end mutated: right end (5 bp flank + 75 bp right end); higher = more efficient transposition
Summary of the method: as §1

Sequence | relative integration efficiency (log2) [1] | relative integration efficiency (log2) [2]
ACATTTGTTGATACAACCATAAAATGATAATTAATAATTATTTATAATCAGCAACTTAACCACAAAACACCCATAAATTGATAATTAACAAAAGTGGGTATTTAACTATAACGTGTGAATCGAGTAT | -3.472 ± 0.019 | -1.88 ± 0.39
ACATTTGTTGATACAACCATAAAATGATAATTACACCCATAAATTGATATTGCTCACACCCATAAATTGATAATTACTCTGATCATAGTCAGACCAACATTGCTACGACCCGTATTCGCACCGACAC | -0.432 ± 0.2 | 0.634 ± 0.033
ACATTTGTTGATACAACCATAAAATGATAATTACACCACGCCCGGTCGCCGGCGACACAAACGCCCGGTCGCGGTAAGAGGATCATAGTCAGACCAACATTGCTACGACCCGTATTCGCACCGACAC | -2.31 ± 0.082 | 0.799 ± 0.081
ACATTTGTTGATACAACCATAAAATGATAATTACACCCATAAATTGATAATTATCACACCCATAAAGGTCGCGGTAAGAGGATCATAGTCAGACCAACATTGCTACGACCCGTATTCGCACCGACAC | -0.82 ± 0.057 | 2.16 ± 0.14
ACATTTGTTGATACAACCATAAAATGGTAATTACACCCCTAAATTGATAATTATCACACCCAATTTAACTATAACGCTCTGATCATAGTCAGACCAACATTGCTACGACCCGTATTCGCACCGACAC | -3.07 ± 0.34 | 0.104 ± 0.26
ACATTTGTTGATACAACCATAAAATGATAATTAATAACACCCATAAATTGATAATTATCACACCCATAAATTGATATTGCCTCTGATCATAGTCAGACCAACATTGCTACGACCCGTATTCGCACCG | -3.16 ± 0.3 | 0.728 ± 0.12
ACATTTGTTGATACAACCATAAAAGGATAATTCACCCCTAAATTGATAATTATCACACCCACATTTAACTATAACGCTCTGATCATAGTCAGACCAACATTGCTACGACCCGTATTCGCACCGACAC | -4.49 ± 0.25 | -0.705 ± 0.48
ACATTTGTTGATACAACCATAAAATGCTAATTACACCCATAAATTGCTAATTATCACACCCATAAATTGCTATTGCCTCTGATCATAGTCAGACCAACATTGCTACGACCCGTATTCGCACCGACAC | -1.55 ± 0.13 | -0.567 ± 0.21
ACCGGGGTTGATACAACCATAAAATGATAATTACACCCATAAATTGATAATTATCACACCCATAAATTGATATTGCCTCTGATCATAGTCAGACCAACATTGCTACGACCCGTATTCGCACCGACAC | -6.81 ± 0.49 | -5.64 ± 0.3
ACATTTGTTGATACAACCAGCCCATGATAATTACACCCATAAATTGATAATTATCACACCCATAAATTGATATTGCCTCTGATCATAGTCAGACCAACATTGCTACGACCCGTATTCGCACCGACAC | -4.196 ± 0.023 | -3.69 ± 0.75
ACATTTGTTGATACAACCATCAAATGATAATTCCACCCCTACATTGATAATTATCACACCCAATTTAACTATAACGCTCTGATCATAGTCAGACCAACATTGCTACGACCCGTATTCGCACCGACAC | -4.18 ± 0.17 | -0.8 ± 0.15
ACATTTGTTGATACAACCATAAAATCATAATTACCCCCATCAATTGATAATTATCACACCCAATTTAACTATAACGCTCTGATCATAGTCAGACCAACATTGCTACGACCCGTATTCGCACCGACAC | -5.12 ± 0.12 | -2.04 ± 0.46
ACATTTGTTGATACACAACTAAAATGATAATTACACCCATAAATTGATAATTATCACACCCATAAATTGATATTGCCTCTGATCATAGTCAGACCAACATTGCTACGACCCGTATTCGCACCGACAC | -3.13 ± 0.19 | -3.43 ± 1.4
ACATTTGTTGATAAAACCATACGTTGATTTTACGAAACCATACGCTGAAATAATCACACCCATAAATTGATATTGCCTCTGATCATAGTCAGACCAACATTGCTACGACCCGTATTCGCACCGACAC | -5.63 ± 0.18 | -3.87 ± 1.2
ACATTTGTTGATACAACCATAAAGTGATATTTACAACCATAAAATGATAATTATCAGTGGGTATTTAACTATAACGCTCTGATCATAGTCAGACCAACATTGCTACGACCCGTATTCGCACCGACAC | -0.714 ± 0.27 | 2.86 ± 0.12
ACATTTGTTGATACAACCATAAAATGATAATTACACCCATAAATTGATAATTATCAGTGGGTATTTAACTATAACGCTCTGATCATAGTCAGACCAACATTGCTACGACCCGTATTCGCACCGACAC | -0.681 ± 0.17 | 2.65 ± 0.1
ACATTTGTTGATAAAACCATAAAATGATAATTAAACCCATAAATTGATAATTATCAAACCCATAAATTGATATTGCCTCTGATCATAGTCAGACCAACATTGCTACGACCCGTATTCGCACCGACAC | -0.472 ± 0.18 | -0.129 ± 0.36
ACATTTGTTGATACAACCATAAAATGATCACCCATAAATTGATAATTATCACACCCATAAATTGATATTGCCTCTGATCATAGTCAGACCAACATTGCTACGACCCGTATTCGCACCGACACTGACT | -4.08 ± 0.34 | -0.722 ± 0.27

Sequence | relative integration efficiency (log2) [1] | relative integration efficiency (log2) [2]
ACATTTGTTGATACAACCATAAAATGATAATTACACCCATAAATTGATAATTATCACACCCATAAATTGATATTGCCTCTGATCATGGTGTCTCGCTTCAGCAGTCAGACCAACATTGCACCGACAC | -0.125 ± 0.18 | -0.507 ± 0.025
ACATTGGTCGATACAACCATAAAATGATAATTACACCCATAAATTCATCATTATCACACCCAATTTAACTATAACGCTCTGATCATAGTCAGACCAACATTGCTACGACCCGTATTCGCACCGACAC | -7.035 ± 0.062 | -5.19 ± 1.2
ACATTTGTTGATACAACCATAAAATGATAATTACACCCATAAATTGATAATTATCACACCCATAAATTGATATTGCCTCTCAACCATAAAATGATAATTAGATCATAGTCAGACCAAGCACCGACAC | -0.0518 ± 0.26 | 0.308 ± 0.018
ACATTTGTTGATACAACCATAAAATGATAATTACACCCATAAATGTATAATTATCACACCCATAAATTGATATTGCCTCTGATCATAGTCAGACCAACATTGCTACGACCCGTATTCGCACCGACAC | -0.553 ± 0.026 | -1.04 ± 0.38
ACATTTGTTGATACAACCATAAAAGGATAATTACACCCATCAATTGATAATTATCACACCCCATTTAACTATAACGCTCTGATCATAGTCAGACCAACATTGCTACGACCCGTATTCGCACCGACAC | -2.2 ± 0.15 | 1.27 ± 0.19
ACATTTGTTCATCCAACCATAAAATGATAATTACACCCATAAATTCATCATTATCACACCCAATTTAACTATAACGCTCTGATCATAGTCAGACCAACATTGCTACGACCCGTATTCGCACCGACAC | -2.92 ± 0.45 | -0.745 ± 0.19
ACATTTGTTGATACAACCATATATTGATATCTCCAACCATATATTGATATCTCTCACAACCATAAGTTGATATTTTCTCTGATCATAGTCAGACCAACATTGCTACGACCCGTATTCGCACCGACAC | -0.571 ± 0.19 | -0.0341 ± 0.43
ACATTTGTTGATACAACCATAAAAGGATCATTACCCCCATAAATTGATAATTATCCCACCCCATTTAACTATAACGCTCTGATCATAGTCAGACCAACATTGCTACGACCCGTATTCGCACCGACAC | -2.25 ± 0.25 | 0.775 ± 0.15
ACATTTGTTGATACAACCATAAAATGATAATTACTCTGACACCCATAAATTGATAATTATCAGTGGGTATTTAACTATAACGTCATAGTCAGACCAACATTGCTACGACCCGTATTCGCACCGACAC | -2.06 ± 0.27 | 1.33 ± 0.1
ACATTTGTTGATACAACCATAAAATGATAATTACACCCATAAATTGATAATTATCACACCCATAAATTGATATTGCCTCTGATCATAGCAACCATAAAATGATAATTATCAGACCAAGCACCGACAC | -0.108 ± 0.26 | -0.337 ± 0.55
ACATTTGTTGATACAACCATAAGTTGATATTTTCAACCATAAAATGATAATTATCACACCCATAAATTGATAATTACTCTGATCATAGTCAGACCAACATTGCTACGACCCGTATTCGCACCGACAC | -0.162 ± 0.0022 | -0.376 ± 0.15
ACATTTGTTGATACAACCATAAAATGATAAATACACCCATAAATTGATAATGATGACACCGAATTTAACTATAACGCTCTGATCATAGTCAGACCAACATTGCTACGACCCGTATTCGCACCGACAC | -0.862 ± 0.42 | 2.71 ± 0.18
ACATTTGTTGATACAACCAATAAATGATAAATACACCCATAAATTGATAATGATGACACCGAATTTAACTATAACGCTCTGATCATAGTCAGACCAACATTGCTACGACCCGTATTCGCACCGACAC | -1.58 ± 0.26 | 1.75 ± 0.069
ACATTTGTTGATACAACCATAAAATGATAATTAATAATTATTTATAATCAGCAACTTAACCACACACCCATAAATTGATAATTATCACACCCATAAATTGATATTGCCTCTGATCATAGTCAGACCA | -3.09 ± 0.16 | -0.603 ± 0.78
ACATTTGTTGATACAACCATAAAATGAATTAATCACCCATAAATTGAATTAATTCACACCCATAAATTGAATAACGCTCTGATCATAGTCAGACCAACATTGCTACGACCCGTATTCGCACCGACAC | -2.34 ± 0.14 | -1.25 ± 0.054
ACATTTGTTGATACAACCATAAAATGATAATTACACGGTAAAATTGATAATTATCACACCCATAAATTGATATTGCCTCTGATCATAGTCAGACCAACATTGCTACGACCCGTATTCGCACCGACAC | -1.85 ± 0.1 | -2.29 ± 0.055
ACATTTGTTGATACAACCATAAAATGGTAATTCCACCCATACATTGATAATTATCACACCCAATTTAACTATAACGCTCTGATCATAGTCAGACCAACATTGCTACGACCCGTATTCGCACCGACAC | -3.15 ± 0.33 | 0.391 ± 0.15
